This note sets out measurements from patent EP4810058A1 (Shanghai Henlius Biotech, Inc., dated 2026).

One assay concerns the target T1, HER2-Fc protein (human, UniProt P04626 23-652).
T1 construct: Bought reagent (Sino Biological, PA, USA, Cat. No. 10004-H02H, LC10JA1203); not shown: Fc part of the bought fusion
The assay is described as follows: SPR (Biacore CM5), antibody immobilized by amine coupling, HER2-Fc injected. On the technique in general: SPR reads the build-up and loss of mass on a sensor chip optically.

The target of assay [1] is T2, HER2 on gastric cancer cells NCI-N87 and SNU216 (human, UniProt P04626 23-1255).
T2 construct: whole, on cells; also called CD340; erbB2
Description: HER2 internalization assay on NCI-N87 and SNU216 cells, pHrodo dye, flow cytometry. On the technique in general: A flow cytometer gives signals particle by particle.

B1: Second anti-HER2 antibody (antibody, human IgG1, kappa, V domains shown)
VH: EVQLVESGGGLVQPGGSLRLSCAASGFTFSSYTMSWVRQAPGKGLEWVAYISAGGGSTYYPDTVKGRFTISRDNAKNSLYLQMNSLRAEDTAVYYCARHLGGTASFDYWGQGTLVTVSS
VL: DIQMTQSPSSLSASVGDRVTITCLASQTIGTWLAWYQQKPGKAPKLLIYVATSLADGVPSRFSGSGSGTDFTLTISSLQPEDFATYYCQQNAYAPWTFGQGTKVEIKR
notes: also called second antibody; hz1E11-133
For B1, the binding result (with HER2-Fc protein; in assay [1]) was “binds” in each case.
